Assay: yeast display, Sf9 membrane polyspecificity reagent, FACS + sequencing; frameworks hold sequencing errors
Summary of the method: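 A synthetic nanobody library was expressed on Saccharomyces cerevisiae BJ5465 by galactose induction for 36–48 hours. The library was stained for 1 hour at 4 °C with 10% biotinylated, detergent-solubilized Sf9 membrane reagent and enriched with streptavidin microbeads before FACS. Low and high (top ~1%) gates were set on anti-HA fluorescence for expression and streptavidin fluorescence for reagent binding, and each polyreactivity label reflects the gate of origin.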

Sequence	polyreactivity (PSR sort gate)
QVQLVESGGGLVQAGGSLRLSCAASGRTFALYAMGWYRQAPGKERELVAAITFSGGSTSYADSVKGRFTISRDNAKYTVYLQMNSLKPEDTAVYYCAAYWYSLYYLYPYDYWGQGTQVTVSS	low polyreactivity
QVQLVESGGGLVQAGGSLRLSCAASGRTFAPYAMGWYRQAPGKERELVARITWSGTDTYYADSVKGRFTISRDNAKNNVYLQMNSLKPEDTAVYYCAADARYSRRYYYWGQGTQVTVSS	low polyreactivity
QVQLVESGGGLVQAGGSLRLSCAASGRTFAQYAMGWYRQAPGKERELVAGISRSGGSTYYADCVKGRFTISRDNAKNTVYLQMNSLKPEDTAVYYCAARWRGARWYYYWGQGTQVTVSS	high polyreactivity
QVQLVESGGGLVQAGGSLRLSCAASGRTFARNAMGWSRQAPGKERELVAAITRSGGSTYYADSVKGRFTISRDNAKNTVYLQMNSLKPEDTAVYYCAAVGTGSSLRYGYWGQGTQVTVSS	high polyreactivity
QVQLVESGGGLVQAGGSLRLSCAASGRTFARNAMGWYRQAPGKERELVAAISSSGGSTYYADSVKGRFTISRDNAKNTVYLQMNSLKPEDTAVYYCARYSSFTYDYWGQGTQVTVSS	high polyreactivity
QVQLVESGGGLVQAGGSLRLSCAASGRTFARYAMGSYRQAPGKERELDAAITSGGSTNYADSVKGRFTISRDNAKNTVYLQMNSLKPEDTAVYYCNARRRAPKGPIPAGNYWGQGTQVTVSS	high polyreactivity
QVQLVESGGGLVQAGGSLRLSCAASGRTFARYAMGWYRQAPGKERELVAAISSGGSTYYADSVKGRFTISRDNAKNTVYLQMNSLKPEDTAVYYCAAEWHYIYAYDYWGQGTQVTVSS	low polyreactivity
QVQLVESGGGLVQAGGSLRLSCAASGRTFARYVMGWYRQAPGKERELVAAINSGGNTYYADSVKGRFTISRDNAKNTVYLQMNSLKPEDTAVYYCAVKAARTYYWGQGTQVTVSS	high polyreactivity
QVQLVESGGGLVQAGGSLRLSCAASGRTFARYVMGWYRQAPGKERELVAAISGGGGSTYYADSVKGRFTISRDNAKNTVYLQMNSLKPEDTAVYYCAAVPEGPNTGDDANGLDYWGQGTQVTVSS	low polyreactivity
QVQLVESGGGLVQAGGSLRLSCAASGRTFATYAMAWYRQAPGKERELVAAISRSGSTTYYADSVKGRFTISRDNAKNTVYLQMNSLKPEDTAVYYCNAKFRKADYDYWGQGTQVTVSS	high polyreactivity
QVQLVESGGGLVQAGGSLRLSCAASGRTFATYAMGWYRQAPGKERELVAAITSGGSTYYADSVKGRFTISRDNAKNTVYLQMNSLKPEDTAVYYCAAARKYYGYNYWGQGTQVTVSS	high polyreactivity
QVQLVESGGGLVQAGGSLRLSCAASGRTFAVNALGWYRQAPGKERELVAAIRTGSTYYADSVKGRFTISRDNAKNTVYLQMNSLKPEDTAVYFCAAPYRADSYDYWGQGTQVTVSS	high polyreactivity
QVQLVESGGGLVQAGGSLRLSCAASGRTFAVNGKGWYRPAPGKERELVAAISSGGSTNYADSVKARFTISRDNAKNTVYLQLNSLKPEDTAVYYCAADYTRAHISYYYWGQGTQVTVSS	high polyreactivity
QVQLVESGGGLVQAGGSLRLSCAASGRTFAVYAMGWYRQAPGKERELVAAISYSGDSTYYADSVKGRFTISRDNAKYTVYLQMNSLKPEDTAVYYCAADFLVGLTAVAYEYWGQGTQVTVSS	low polyreactivity
QVQLVESGGGLVQAGGSLRLSCAASGRTFAVYAMGWYRQAPGKERELVAAITYGGGRTSYADSVKGRFTISRDYAKNTVYFQMKRLKPEDTAVYSCAADYYGTDYDYWGQGTQVTVSS	low polyreactivity
QVQLVESGGGLVQAGGSLRLSCAASGRTFAWNTMGWYRQAPGKERELLAAISGSGGSTYYADSVKGRFTISRDYAKNTVYLQMNSLKPEDTAVYYCARRVDSYYGHTLYYYWGQGTQVTVSS	high polyreactivity

Sequence	polyreactivity (PSR sort gate)
QVQLVESGGGLVQAGGSLRLSCAASGRTFAWYTMGWSRQEPGKERELVAAISGSGGSTYYADSVKGRFTISRDNAKNTVYLQMNSLKPEDTAVYYCARRVDSYYGHTRYYYWGQGTQVTVSS	high polyreactivity
QVQLVESGGGLVQAGGSLRLSCAASGRTFAWYTMGWYRKAPGKERELVAAISGSGGSTYYADSVKGRFTISRDNAKNTVYLQMNSLKPEDSAVYYCARRVDSYYGHTRYYYWGQGTQITVSS	high polyreactivity
QVQLVESGGGLVQAGGSLRLSCAASGRTFAYNAMGWYIQAPGKERELVASITSGGSTNYADSVKGRFTISRDNAKNTVYLQMNSLKPEDTAVYYCNKDGKYHRVLYDYWGQGTQVTVSS	low polyreactivity
QVQLVESGGGLVQAGGSLRLSCAASGRTFAYNAMGWYRQAPGKEREFVAGISRSGGSTYYADSVKGRFTISRDNAKNTVYLQMNSLKPEDTAVYYCAAQFYALPNVGTKYYSWGQGTQVTVSS	low polyreactivity
QVQLVESGGGLVQAGGSLRLSCAASGRTFAYNAMGWYRQAPGKERELVAAISRSGTITYYADSVKGRFTISRDNAKNTVYLQMNSLKPEDTAVYYCNKASTYPSYDYWGQGTQVTVSS	high polyreactivity
QVQLVESGGGLVQAGGSLRLSCAASGRTFAYNDMGWYRQAPGKERELGAAISWSDGTTYYADSVKGRFTISRDNAKNTVYLQMYSLKPEDTAVYYCNADDYLTSIYRYDYWGQGTQVTVSS	low polyreactivity
QVQLVESGGGLVQAGGSLRLSCAASGRTFAYNDMGWYRQAPGKERELVAAITSVASTYYADSVKGRFTISRDNAKNTVYLQMNSLKPEDTAVYYCAADTRSLRPRYQLYGEDSWGQGTQVTVSS	low polyreactivity
QVQLVESGGGLVQAGGSLRLSCAASGRTFAYNTMGWYRQAPGKEREFVAAIDSGDSTYYADSVKGRFTISRDNAKNTVYLQMNSLKPEDTAVYYCAARRYYGYDYWGQGTLVTVSS	high polyreactivity
QVQLVESGGGLVQAGGSLRLSCAASGRTFAYNTMGWYRQAPGKERELVAAITSGGSTYYADSVKGRFTISRDNAKNTVYLQINSLKPEDTAVYYCSAVDYWDYFYWRDDYWGQGTQVTVSS	low polyreactivity
QVQLVESGGGLVQAGGSLRLSCAASGRTFAYNVMGGYRQAPGKERELVAGISFGAGSTYYADSVKGRFTISRDNAKNTVYLQMNSLNPEDTAVYYCATRRRGTRYQLGYDYWGQGTQVTVSS	high polyreactivity
QVQLVESGGGLVQAGGSLRLSCAASGRTFAYYAMGWYRQAPGKERELVAAISTSGTRTYYADSVKGRFTISRDNAKNTVYLQMNSLKPEDTAVYYCAARYRYQYEFDYWGQGTQVTVSS	high polyreactivity
QVQLVESGGGLVQAGGSLRLSCAASGRTFAYYVMGWDRQAPGKERELVAAISWSAGSTYYADSVKGRFTISRDNAKNTVYLQMNSLKPEDTAVYYCAADYRFRYEYWGQGTQVTVSS	low polyreactivity
QVQLVESGGGLVQAGGSLRLSCAASGRTFDDYAMGWDRQAPGKERELVAAITQNGRDTYADSVKGRFTISRDNSKKYRLFTDVQPVTGRYRGLLLRCVRYEVNLYDYWGQGTQVTVST	low polyreactivity
QVQLVESGGGLVQAGGSLRLSCAASGRTFDGNAMGWYRQAPGKEGEFVATISTDGGSTHYADSVKGRFTISRDNAKNTVYLQMNSLKPEDTAVYYCAADTPWYDDNYDYWGQGTQVTVSS	low polyreactivity
QVQLVESGGGLVQAGGSLRLSCAASGRTFDGNAMGWYRQAPGKERELVAAISQGGGSTYYADSVKGRFTISRDNAKNTVYLQMNSLKPEDTAVYYCNAVGYTPRKPSKFDYWGQGTQVTVSS	low polyreactivity
QVQLVESGGGLVQAGGSLRLSCAASGRTFDGYAMGWYRQAPGKERELVAAISTSGVRTYYADSVKGRFTISRDNAKNTVYLQMNSLKPEDTAVYYCAADWTGGYEYWGQGTQVTVSS	high polyreactivity
